Measured values as given in patent US20260069726A1, “ZWITTERIONIC COMPOUNDS AND USES THEREOF” (priority 2022, published 2026).

What was measured:
[1] = format: in vitro ADME, human
Method: (§1) Serum stability was determined using a previously published method. Aliquots of each one of the [^68Ga]Ga-DOTA-TATEs (5.0 MBq) were added to 0.4 mL human or mice serum and incubated at 37° C. Aliquots (20 μL) were taken at various time intervals (10, 30, 60, 90, 120 minutes) and quenched in ice-cold acetonitrile. The samples were centrifuged, and the supernatants were diluted further with deionized water and were analyzed by radio-HPLC (a flow rate 0.65 mL/min with a gradient of CH3CN:H2O with 0.1% TFA in both). 5.0 MBq of [^68Ga]Ga-DOTA-TATEs were prepared in 0.4 mL of PBS and used as a reference in the radio-HPLC measurement for the stability in serum study.

[2] = format: in vitro ADME, mouse
Method: as §1

[3] = in vivo; conditions: male, NOD-SCID gamma (NSG), mouse, in vivo, iv, total radioactivity
Method: (§2) The experimental protocol was approved by the University of Saskatchewan Committee on Animal Care and procedures were performed in accordance with the guidelines of the Canadian Council on Animal Care and the Canadian Nuclear Safety Commission. Aliquots of about 200 μL of each one of [^68Ga]Ga-DOTA-TATEs (7-5 MBq with <10% EtOH) were loaded to 0.5 mL syringes and >96% Radiochemical yields (RCY) were confirmed by using radio-HPLC followed by injection to healthy CD1 female mice and xenograft bearing male NOD-SCID gamma mice (USASK colony F1 005557, strain NOD.Cg-PrkdcscidIl2rg) (n=4), via tail vein catheter while in the PET scanner with image acquisition started, under anesthesia (2.5% isoflurane in O2, at a flow rate of 2 mL/min). 90-minute dynamic images of all four mice were collected simultaneously on the Sofie GNEXT PET/CT small animal imaging system using the included 4-mouse heated bed. The mice were euthanized (by cervical dislocation while they were under the effect of anesthesia) at 2 hrs post injection and blood and specific organs were harvested, weighed, and residual activity in the organs were measured by using an automated gamma counter. All images were reconstructed using VivoQuant® 2020 software (patch 1 64 bit, build vq-2020patch1-0-ga8255affc).
(§3) As done for healthy mouse studies, animals were awakened for 30 minutes following PET/CT and then euthanized at 2 hours post injection. Tissue/organ samples were collected, weighed, and the amount of activity present in the samples was measured using an automated gamma counter.

[4] = test system: AR42J (SSTR2 over-expressing) subcutaneous tumors; test: Ex vivo biodistribution in xenograft mice two hours post injection; conditions: for tumor uptake compared with the other compounds: AR42J tumor bearing mice; for tumor uptake compared with the other compounds / tumor uptake, biodistribution / tumor-to-kidney ratio: 2 hours post injection; for tumor uptake, biodistribution / tumor-to-kidney ratio: male AR42J tumor bearing mice; for pharmacokinetic of healthy-tissue clearance (words, figure legend) / tumor-tissue ratios (words, figure legend): mouse, in vivo
Method: as §2, §3

[5] = format: in vitro ADME; conditions: plasma
Method: Serum binding assay for each one of [^68Ga]Ga-DOTA-TATEs were carried out as described in the literature. Compendiously, labelled [^68Ga]Ga-DOTA-TATEs (4-3 MBq) were added to freshly prepared 0.1 mL of anticoagulated human or mice plasma and the mixtures were incubated for 120 minutes at 37° C. This was followed by addition of 1.0 mL ice-cold acetonitrile and centrifuged for 2 minutes at 3000 RPM. The addition of acetonitrile had been repeated two times and all supernatants (denoted as A) were combined and the total radioactivity was measured using automated gamma counter. The radioactivity of the precipitate (B) was measured as well. The plasma-protein binding rate was calculated using Equation 2 below (n=3).

[6] = format: physicochemical; conditions: pH 7.4
Method: The lipophilicity of each one of the [^68Ga]Ga-DOTA-TATEs were assessed as described in the literature. In brief, two phases of 1-octanol and phosphate buffer (PBS) at a pH of 7.4 were presaturated with each other. The presaturated 1-octanol (3.0 mL) was added to 3.0 mL of presaturated PBS that had about 0.3 MBq of labelled [^68Ga]Ga-DOTA-TATEs. The mixture was vortexed for 1.0 minute at room temperature then centrifuged for 1.0 minute at 3000 RPM. 1.0 mL of each phase was taken and measured its activity in automated gamma counter. Log D7.4 was determined for at least three experiments using Equation 1 below, where CPM (count per minute) is the reading from the gamma counter.

[7] = test system: AR42J (SSTR2 over-expressing) subcutaneous tumors; test: Dynamic PET/CT imaging (0-90 minutes) in tumor-bearing mice; conditions: male NSG mice bearing AR42J tumors
Method: as §2

[8] = set-up: species or system healthy CD1 mice; conditions: mouse, in vivo
Method: Experiments were performed in healthy female mice (CD1) to determine the behavior and distribution of these compounds (pharmacokinetics). Mice were catheterized via tail vein and injected while in the scanner, and dynamic PET-CT imaging was performed from time 0 until 1.5 hours post injection (n=4 each group, 4 mice in the scanner simultaneously).

[9] = set-up: species or system healthy CD1 mice; conditions: mouse, in vivo; remark: listed apart in the source
Method: After imaging was complete, the mice were kept awake for an additional 30 minutes before being euthanized, bringing the total period of the injection to 2 hours. Biodistribution was performed by removing and weighing individual tissues and organs, and then measuring the activity of [^68Ga]Ga^3+ inside each sample using an automated gamma counter.

SMILES | HSS % (2 hrs.) = Human Serum Stability [1] | MSS % (2 hrs.) = Mouse Serum Stability [2] | tissue uptake at 2 h [3] | tumor uptake compared with the other compounds ([4]; listed as Lys(ZW) derivative) | tumor uptake compared with the other compounds ([4]; listed as [^68Ga]Ga-DOTA-Lys(ZW)-PEG4-TATE) | tumor uptake, biodistribution [4] | tumor-to-kidney ratio [4] | pharmacokinetic of healthy-tissue clearance (words, figure legend) [4] | tumor-tissue ratios (words, figure legend) [4] | fraction unbound at 120 min [5] | logD [6] | tumor uptake compared with the other compounds [4] | kidney accumulation, retention and clearance seen in dynamic PET/CT [7] | fraction unbound [5] | start of excretion / renal elimination into the bladder [8] | renal uptake, biodistribution [9]
C[C@@H](O)[C@H](NC(=O)[C@@H]1CSSC[C@H](NC(=O)[C@@H](Cc2ccccc2)NC(=O)CCOCCOCCOCCOCCNC(=O)[C@H](CCCC[N+](C)(C)CCCS(=O)(=O)[O-])NC(=O)CN2CCN(CC(=O)O)CCN(CC(=O)O)CCN(CC(=O)O)CC2)C(=O)N[C@@H](Cc2ccc(O)cc2)C(=O)N[C@H](Cc2c[nH]c3ccccc23)C(=O)N[C@@H](CCCCN)C(=O)N[C@@H]([C@@H](C)O)C(=O)N1)C(=O)O [DOTA-(ZW1)-PEG4-TATE] | 100% | 100% | 32.9 ± 19.8 %ID/g | greater tumor uptake | highest | 20.6±2.5 % ID/g | 0.63 | faster | improved | 0.534 | -3.39 ± 0.19 | – | – | – | – | –
C[C@@H](O)[C@H](NC(=O)[C@@H]1CSSC[C@H](NC(=O)[C@@H](Cc2ccccc2)NC(=O)CCOCCOCCOCCOCCNC(=O)[C@H](CCCC[N+](C)(C)CCCS(=O)(=O)[O-])NC(=O)[C@H](CCCC[N+](C)(C)CCCS(=O)(=O)[O-])NC(=O)CN2CCN(CC(=O)O)CCN(CC(=O)O)CCN(CC(=O)O)CC2)C(=O)N[C@@H](Cc2ccc(O)cc2)C(=O)N[C@H](Cc2c[nH]c3ccccc23)C(=O)N[C@@H](CCCCN)C(=O)N[C@@H]([C@@H](C)O)C(=O)N1)C(=O)O [DOTA-(ZW2)-PEG4-TATE] | 100% | 100% | – | – | – | – | – | faster | improved | 0.515 | -3.36 ± 0.18 | reduced tumor uptake | – | – | – | –
C[C@@H](O)[C@H](NC(=O)[C@@H]1CSSC[C@H](NC(=O)[C@@H](Cc2ccccc2)NC(=O)CCOCCOCCOCCOCCNC(=O)[C@@H](Cc2ccc[n+](CCCS(=O)(=O)[O-])c2)NC(=O)CN2CCN(CC(=O)O)CCN(CC(=O)O)CCN(CC(=O)O)CC2)C(=O)N[C@@H](Cc2ccc(O)cc2)C(=O)N[C@H](Cc2c[nH]c3ccccc23)C(=O)N[C@@H](CCCCN)C(=O)N[C@@H]([C@@H](C)O)C(=O)N1)C(=O)O [DOTA-Pyr(ZW)-PEG4-TATE] | 100% | 99.6 ± 0.1% | – | – | – | – | – | – | – | 0.575 | -3.57 | – | – | – | – | –
C[C@@H](O)[C@H](NC(=O)[C@@H]1CSSC[C@H](NC(=O)[C@@H](Cc2ccccc2)NC(=O)CN2CCN(CC(=O)O)CCN(CC(=O)O)CCN(CC(=O)O)CC2)C(=O)N[C@@H](Cc2ccc(O)cc2)C(=O)N[C@H](Cc2c[nH]c3ccccc23)C(=O)N[C@@H](CCCCN)C(=O)N[C@@H]([C@@H](C)O)C(=O)N1)C(=O)O [DOTA-TATE, DOTA-Tyr^3-octreotate, reference compound] | 100% | 100% | 38.8 ± 42.7 %ID/g | – | – | 13.8±4.6 % ID/g | 0.35 | – | – | – | -2.81 | – | rapid accumulation and protracted retention | 0.567 | ~70 minutes post injection | ~74±51 D/g %
